Laboratory results: the supplement of paper PMC10567573

B1: SCNN1D (parent)
chain: FLGHHSFSVRPGTEATISIREDEV

Variants of: B1
Assay: protein stability index of a GFP-peptide fusion (GPS, HEK-293T) (PSI 1-6); higher = more stable
Settings: c terminus: a fixed tail appended
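Also: lentivirally expressed fusions sorted by FACS into six bins by GFP to DsRed ratio, PSI derived from sequencing read proportions per bin multiplied by bin number.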

Variant | protein stability index
FLGHHSFSVRPGTEATINIREDEV [S18N] | 1.57
FLGHHSFSVRPGTEATIPIREDEV [S18P] | 1.8
FLGHHSFSVRPGTEATITIREDEV [S18T] | 1.66
FLGHHSFSVRPGTEATIHIREDEV [S18H] | 1.33
FLGHHSFSVRPGTEATIVIREDEV [S18V] | 1.25
FLGHHSFSVRPGTEATIYIREDEV [S18Y] | 1.71
FLGHHSFSVRPGTEATIDIREDEV [S18D] | 1.43
FLGHHSFSVRPGTEATIRIREDEV [S18R] | 2.22
FLGHHSFSVRPGTEATIQIREDEV [S18Q] | 1.79
FLFHHSFSVRPGTEATISIREDEV [G3F] | 3.48
FLCHHSFSVRPGTEATISIREDEV [G3C] | 2.51
FLTHHSFSVRPGTEATISIREDEV [G3T] | 2.23
FLYHHSFSVRPGTEATISIREDEV [G3Y] | 3.25
FLAHHSFSVRPGTEATISIREDEV [G3A] | 1.95
FLHHHSFSVRPGTEATISIREDEV [G3H] | 2.71
FLIHHSFSVRPGTEATISIREDEV [G3I] | 1.59
FLPHHSFSVRPGTEATISIREDEV [G3P] | 4.02
FLNHHSFSVRPGTEATISIREDEV [G3N] | 2.26
FLGHHSFSVRPGTENTISIREDEV [A15N] | 2
FLGHHSFSVRPGTECTISIREDEV [A15C] | 2.34
FLGHHSFSVRPGTEGTISIREDEV [A15G] | 2.01
FLGHHSFSVRPGTEFTISIREDEV [A15F] | 2.62
FLGHHSFSVRPGTEQTISIREDEV [A15Q] | 1.96
FLGHHSFSVRPGTEITISIREDEV [A15I] | 1.95

Variant | protein stability index
FLGHHSFSVRPGTELTISIREDEV [A15L] | 2.66
FLGHHSFSVRPGTESTISIREDEV [A15S] | 2.63
FLGHHSFSVRPGTERTISIREDEV [A15R] | 1.88
FLGHHSFSVRPGTEATISIRSDEV [E21S] | 1.8
FLGHHSFSVRPGTEATISIRLDEV [E21L] | 2.48
FLGHHSFSVRPGTEATISIRHDEV [E21H] | 1.48
FLGHHSFSVRPGTEATISIRDDEV [E21D] | 1.56
FLGHHSFSVRPGTEATISIRPDEV [E21P] | 2.33
FLGHHSFSVRPGTEATISIRKDEV [E21K] | 1.44
FLGHHSFSVRPGTEATISIRMDEV [E21M] | 2.08
FLGHHSFSVRPGTEATISIRADEV [E21A] | 2.25
FLGHHSFSVRPGTEATISIRFDEV [E21F] | 2.3
FLGHHSFSVRPGTEATISIRWDEV [E21W] | 2.45
FLGHKSFSVRPGTEATISIREDEV [H5K] | 3.06
FLGHNSFSVRPGTEATISIREDEV [H5N] | 1.71
FLGHTSFSVRPGTEATISIREDEV [H5T] | 1.54
FLGHWSFSVRPGTEATISIREDEV [H5W] | 3.19
FLGHRSFSVRPGTEATISIREDEV [H5R] | 2.55
FLGHDSFSVRPGTEATISIREDEV [H5D] | 2.02
FLGHASFSVRPGTEATISIREDEV [H5A] | 2.46
FLGHPSFSVRPGTEATISIREDEV [H5P] | 2.13
FLGHESFSVRPGTEATISIREDEV [H5E] | 1.78
FLGHHSFSVRPNTEATISIREDEV [G12N] | 2.05
FLGHHSFSVRPITEATISIREDEV [G12I] | 1.54

Variant | protein stability index
FLGHHSFSVRPSTEATISIREDEV [G12S] | 1.55
FLGHHSFSVRPTTEATISIREDEV [G12T] | 1.67
FLGHHSFSVRPFTEATISIREDEV [G12F] | 2.69
FLGHHSFSVRPETEATISIREDEV [G12E] | 1.88
ALGHHSFSVRPGTEATISIREDEV [F1A] | 3.92
VLGHHSFSVRPGTEATISIREDEV [F1V] | 4.15
WLGHHSFSVRPGTEATISIREDEV [F1W] | 2.77
FLGHHSFSVRDGTEATISIREDEV [P11D] | 1.88
FLGHHSFSVRVGTEATISIREDEV [P11V] | 1.53
FLGHHSFSVRNGTEATISIREDEV [P11N] | 1.98
FLGHHSFSVRRGTEATISIREDEV [P11R] | 2.02
FLGHHSFSVREGTEATISIREDEV [P11E] | 2.14
FLGHHSFSVRSGTEATISIREDEV [P11S] | 1.72
FLGSHSFSVRPGTEATISIREDEV [H4S] | 1.9
FLGMHSFSVRPGTEATISIREDEV [H4M] | 1.58
FLGLHSFSVRPGTEATISIREDEV [H4L] | 2.08
FLGAHSFSVRPGTEATISIREDEV [H4A] | 2.74
FLGNHSFSVRPGTEATISIREDEV [H4N] | 2.29
FLGFHSFSVRPGTEATISIREDEV [H4F] | 3.4
FLGQHSFSVRPGTEATISIREDEV [H4Q] | 1.32
FLGKHSFSVRPGTEATISIREDEV [H4K] | 2.16
FLGTHSFSVRPGTEATISIREDEV [H4T] | 2.16
FLGVHSFSVRPGTEATISIREDEV [H4V] | 1.77
FLGHHRFSVRPGTEATISIREDEV [S6R] | 2.19

Variant | protein stability index
FLGHHTFSVRPGTEATISIREDEV [S6T] | 2.02
FLGHHDFSVRPGTEATISIREDEV [S6D] | 2.13
FLGHHNFSVRPGTEATISIREDEV [S6N] | 2.08
FLGHHHFSVRPGTEATISIREDEV [S6H] | 2.08
FLGHHQFSVRPGTEATISIREDEV [S6Q] | 1.76
FLGHHYFSVRPGTEATISIREDEV [S6Y] | 2.88
FLGHHSGSVRPGTEATISIREDEV [F7G] | 4.43
FLGHHSISVRPGTEATISIREDEV [F7I] | 3.65
FLGHHSHSVRPGTEATISIREDEV [F7H] | 4.17
FLGHHSCSVRPGTEATISIREDEV [F7C] | 3.6
FLGHHSVSVRPGTEATISIREDEV [F7V] | 3.88
FLGHHSYSVRPGTEATISIREDEV [F7Y] | 2.38
FLGHHSRSVRPGTEATISIREDEV [F7R] | 3.94
FLGHHSQSVRPGTEATISIREDEV [F7Q] | 3.98
FLGHHSWSVRPGTEATISIREDEV [F7W] | 3.24
FLGHHSKSVRPGTEATISIREDEV [F7K] | 4.54
FLGHHSFSVRPGTEATISILEDEV [R20L] | 1.52
FLGHHSFSVRPGTEATISINEDEV [R20N] | 1.49
FLGHHSFSVRPGTEATISIVEDEV [R20V] | 1.65
FLGHHSFSVRPGTEATISICEDEV [R20C] | 2.24
FLGHHSFSVRPGTEATISIAEDEV [R20A] | 2.3
FLGHHSFSVRPGTEATISIHEDEV [R20H] | 1.67
